The target in this assay is T1, soluble extracellular immunoglobulin-like domain of FcμR (human).
T1 construct: FcμR (FAIM3, TOSO), human; 390-aa polypeptide with a 17-aa signal peptide and a 107-aa Ig-like domain; The receptor clone came from Prof; H. Kubagawa; also called sIgFcμR; not shown: His tag (from the nickel column chromatography)
T1 sequence (O60667 whole entry, looked up): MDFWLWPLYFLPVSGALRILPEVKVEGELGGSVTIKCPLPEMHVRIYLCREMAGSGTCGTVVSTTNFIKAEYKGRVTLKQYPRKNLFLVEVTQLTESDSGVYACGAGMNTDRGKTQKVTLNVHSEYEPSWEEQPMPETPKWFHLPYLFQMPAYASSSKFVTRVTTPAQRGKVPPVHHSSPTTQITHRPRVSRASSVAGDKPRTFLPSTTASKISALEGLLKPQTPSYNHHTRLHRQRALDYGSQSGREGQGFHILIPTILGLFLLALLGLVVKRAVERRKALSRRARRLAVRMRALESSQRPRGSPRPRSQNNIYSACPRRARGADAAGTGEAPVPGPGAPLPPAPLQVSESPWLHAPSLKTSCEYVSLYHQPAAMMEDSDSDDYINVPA
Description: SPR; Biacore T200, 25 °C, 0.01 M HEPES, 0.15 M NaCl, 0.005% Surfactant P20, pH 7.4; IgM, IgM-Fc, Fcμ3-4 or IgM-Fc mutants immobilised on CM5 by amine coupling; analyte sIgFcμR 0.25 μM to 12 μM; steady state, 1:1 binding model. As to conditions: both partners purified. Background: In SPR one partner is held on a chip, and binding of the other changes the refractive index at the surface.

Consider one molecule from publication PMC6905151, “Mapping of the binding site for FcμR in human IgM-Fc” (Biochimica et Biophysica Acta. Proteins and Proteomics, 2020).

B1: Fcμ3-4, dimer of Cμ3-Cμ4 domains (domain or fragment)
chain: DQDTAIRVFAIPPSFASIFLTKSTKLTCLVTDLTTYDSVTISWTRQNGEAVKTHTNISESHPNATFSAVGEASISEDDWNSGERFTCTVTHTDLPSPLKQTISRPKGVALHRPDVYLLPPAREQLNLRESATITCLVTGFSPADVFVQWMQRGQPLSPEKYVTSAPMPEPQAPGRYFAHSILTVSEEEWNTGETYTCVVAHEALPNRVTERTVDKSTGK
Broadly, the Kd is a measure of binding affinity in units of concentration. Higher therefore signals a looser complex. B1 showed a dissociation constant (Kd) of 1090 nM.
